The record followed here is patent publication US20080044419A1, “Treatment of T Cell Mediated Diseases by Inhibition of Fgfr3” (Fibron Ltd., priority 2003, published 2008).

The target of assay [1] is T1, FGFR3 (Homo sapiens, UniProt P22607). In words: FDCP-FGFR3 proliferation assay performed with FGF9. The conditions noted are these: dimeric dHLX format. Type of assay: cell-based.
Assay [2] concerns the target T1, FGFR3. Kind of assay: Affinity to FGFR3 measured by FACS. Type of assay: binding.

Bounds are passed on as bounds.

T1 sequence (P22607 23-806): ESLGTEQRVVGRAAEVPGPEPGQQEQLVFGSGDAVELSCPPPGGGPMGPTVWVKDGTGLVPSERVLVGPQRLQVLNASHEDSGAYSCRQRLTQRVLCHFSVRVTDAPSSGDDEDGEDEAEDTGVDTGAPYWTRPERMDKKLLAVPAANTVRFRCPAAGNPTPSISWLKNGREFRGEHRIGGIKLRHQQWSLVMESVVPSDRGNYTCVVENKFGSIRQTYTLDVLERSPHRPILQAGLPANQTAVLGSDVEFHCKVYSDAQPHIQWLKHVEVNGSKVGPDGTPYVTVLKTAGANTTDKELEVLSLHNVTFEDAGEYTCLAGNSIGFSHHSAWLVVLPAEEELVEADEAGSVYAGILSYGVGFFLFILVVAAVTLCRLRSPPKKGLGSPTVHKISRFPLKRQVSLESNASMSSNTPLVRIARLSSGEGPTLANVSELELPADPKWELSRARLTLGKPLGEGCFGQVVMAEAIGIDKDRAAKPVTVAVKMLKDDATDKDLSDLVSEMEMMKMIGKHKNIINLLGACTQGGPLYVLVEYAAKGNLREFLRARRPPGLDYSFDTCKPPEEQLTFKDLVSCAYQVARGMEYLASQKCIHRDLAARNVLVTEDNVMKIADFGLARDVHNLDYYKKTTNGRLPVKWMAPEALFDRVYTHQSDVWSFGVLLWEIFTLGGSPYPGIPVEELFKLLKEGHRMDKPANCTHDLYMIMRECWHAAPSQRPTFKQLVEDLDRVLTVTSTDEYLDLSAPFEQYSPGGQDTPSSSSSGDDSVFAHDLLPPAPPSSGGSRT

B1: PRO-029: HuCAL clone anti-FGFR3 antibody; VH-CDR3 SEQ ID NO:7, VL-CDR3 SEQ ID NO:16 (antibody, V domains shown)
VH: QVQLVQSGAEVKKPGASVKVSCKASGYTFTSYYMHWVRQAPGQGLEWMGWINPNSGGTNYAQKFQGRVTMTRDTSISTAYMELSSLRSEDTAVYYCARTWQYSYFYYLDGGYYFDIWGQGTLVTVSS
VL: DIVLTQSPATLSLSPGERATLSCRASQSVSSSYLAWYQQKPGQAPRLLIYGASSRATGVPARFSGSGSGTDFTLTISSLEPEDFATYYCQQTNNAPVTFGQGTKVEIKRT
With B1, the IC50 (in general, the concentration needed to halve the response being measured) with FGFR3 [1] worked out at 20 nM. Moreover, the dissociation constant Kd (commonly the free concentration of one partner at which half of the binding sites on the other are occupied at equilibrium, for simple one-to-one binding) with FGFR3 [2] is < 1 nM.

B2: PRO-002: HuCAL clone anti-FGFR3 antibody; VH-CDR3 SEQ ID NO:2, VL-CDR3 SEQ ID NO:11 (antibody, V domains shown)
VH: QVQLVQSGAEVKKPGASVKVSCKASGYTFTSYYMHWVRQAPGQGLEWMGWINPNSGGTNYAQKFQGRVTMTRDTSISTAYMELSSLRSEDTAVYYCARDFLGYEFDYWGQGTLVTVSS
VL: DIELTQPPSVSVAPGQTARISCSGDALGDKYASWYQQKPGQAPVLVIYDDSDRPSGIPERFSGSNSGNTATLTISGTQAEDEADYYCQSYDYSADYVFGGGTKLTVLGQ
For the molecule B2, the IC50 with FGFR3 [1] was found to be 360 nM. In the assay with FGFR3 [2], this molecule gave a Kd of 43 nM.

B3: PRO-001: HuCAL clone anti-FGFR3 antibody; VH-CDR3 SEQ ID NO:1, VL-CDR3 SEQ ID NO:10; VH SEQ ID NO:19, VL SEQ ID NO:28 (antibody, V domains shown)
VH: QVQLQQSGPGLVKPSQTLSLTCAISGDSVSSNSAAWNWIRQSPGRGLEWLGRTYYRSKWYNDYAVSVKSRITINPDTSKNQFSLQLNSVTPEDTAVYYCARSYYPDFDYWGQGTLVTVSS
VL: DIELTQPPSVSVAPGQTARISCSGDALGDKYASWYQQKPGQAPVLVIYDDSDRPSGIPERFSGSNSGNTATLTISGTQAEDEADYYCQSYDGPDLWVFGGGTKLTVLGQ
modifications: SEQUENCE FROM PHAGE LIBRARY
B3 had a half-maximal inhibitory concentration (IC50) with FGFR3 [1] of 19 nM. In the assay with FGFR3 [2], this molecule came in with a dissociation constant Kd of 0.7 nM.

B4: PRO-026: HuCAL clone anti-FGFR3 antibody; VH-CDR3 SEQ ID NO:6, VL-CDR3 SEQ ID NO:15 (antibody, V domains shown)
VH: QVQLVQSGAEVKKPGASVKVSCKASGYTFTSYYMHWVRQAPGQGLEWMGWINPNSGGTNYAQKFQGRVTMTRDTSISTAYMELSSLRSEDTAVYYCARGYWYAYFTYINYGYFDNWGQGTLVTVSS
VL: DIALTQPASVSGSPGQSITISCTGTSSDVGGYNYVSWYQQHPGKAPKLMIYDVSNRPSGVSNRFSGSKSGNTASLTISGLQAEDEADYYCQSYDNNSDVVFGGGTKLTVLGQ
With B4, inhibition with FGFR3 [1] was half-maximal at 70 nM (IC50). Further, the Kd in the assay with FGFR3 [2] was 1.4 nM.

B5: PRO-055: HuCAL clone anti-FGFR3 antibody; VH-CDR3 SEQ ID NO:9, VL-CDR3 SEQ ID NO:18 (antibody, V domains shown)
VH: QVQLVQSGAEVKKPGASVKVSCKASGYTFTSYYMHWVRQAPGQGLEWMGWINPNSGGTNYAQKFQGRVTMTRDTSISTAYMELSSLRSEDTAVYYCARSMNSTMYWYLRRVLFDHWGQGTLVTVSS
VL: DIALTQPASVSGSPGQSITISCTGTSSDVGGYNYVSWYQQHPGKAPKLMIYDVSNRPSGVSNRFSGSKSGNTASLTISGLQAEDEADYYCQSYDMYNYIVFGGGTKLTVLGQ
B5 showed an IC50 with FGFR3 [1] of 34 nM.

B6: PRO-054: HuCAL clone anti-FGFR3 antibody; VH-CDR3 SEQ ID NO:8, VL-CDR3 SEQ ID NO:17 (antibody, V domains shown)
VH: QVQLVQSGAEVKKPGASVKVSCKASGYTFTSYYMHWVRQAPGQGLEWMGWINPNSGGTNYAQKFQGRVTMTRDTSISTAYMELSSLRSEDTAVYYCARNMAYTNYQYVNMPHFDYWGQGTLVTVSS
VL: DIELTQPPSVSVAPGQTARISCSGDALGDKYASWYQQKPGQAPVLVIYDDSDRPSGIPERFSGSNSGNTATLTISGTQAEDEADYYCQSYDYFKLVFGGGTKLTVLGQ
In the case of B6, in the assay with FGFR3 [1], the IC50 was 45 nM.
